Results: article PMC3280255

Target: FUD, a 56-residue recombinant polypeptide based on the Functional Upstream Domain of the F1 adhesin of Streptococcus pyogenes (Streptococcus pyogenes)
Assay: ELISA; competitive enzyme-linked assay: high binding plates coated overnight at 4°C with 10 µg/mL FN; 0.3 nM biotinylated FUD with increasing concentrations of soluble 70K proteins; binding relative to no competitor

Row | Substance | fold decrease in ability to compete, against wildtype 70K
1 | 70K I150/242A (Ile-to-Ala mutations in the IGD motifs of 3FNI and 5FNI) (domain or fragment) | 2 fold
2 | 70K I480/572A (Ile-to-Ala mutations in the IGD motifs of 7FNI and 9FNI) (domain or fragment) | 2 fold
